Results reported in PMC11227723.

Molecular target: Tropomyosin receptor kinase B (human TrkB), stably expressed in NIH-3T3 cells (human) (UniProt Q16620)
Chain of UniProt Q16620 (Q16620 32-822): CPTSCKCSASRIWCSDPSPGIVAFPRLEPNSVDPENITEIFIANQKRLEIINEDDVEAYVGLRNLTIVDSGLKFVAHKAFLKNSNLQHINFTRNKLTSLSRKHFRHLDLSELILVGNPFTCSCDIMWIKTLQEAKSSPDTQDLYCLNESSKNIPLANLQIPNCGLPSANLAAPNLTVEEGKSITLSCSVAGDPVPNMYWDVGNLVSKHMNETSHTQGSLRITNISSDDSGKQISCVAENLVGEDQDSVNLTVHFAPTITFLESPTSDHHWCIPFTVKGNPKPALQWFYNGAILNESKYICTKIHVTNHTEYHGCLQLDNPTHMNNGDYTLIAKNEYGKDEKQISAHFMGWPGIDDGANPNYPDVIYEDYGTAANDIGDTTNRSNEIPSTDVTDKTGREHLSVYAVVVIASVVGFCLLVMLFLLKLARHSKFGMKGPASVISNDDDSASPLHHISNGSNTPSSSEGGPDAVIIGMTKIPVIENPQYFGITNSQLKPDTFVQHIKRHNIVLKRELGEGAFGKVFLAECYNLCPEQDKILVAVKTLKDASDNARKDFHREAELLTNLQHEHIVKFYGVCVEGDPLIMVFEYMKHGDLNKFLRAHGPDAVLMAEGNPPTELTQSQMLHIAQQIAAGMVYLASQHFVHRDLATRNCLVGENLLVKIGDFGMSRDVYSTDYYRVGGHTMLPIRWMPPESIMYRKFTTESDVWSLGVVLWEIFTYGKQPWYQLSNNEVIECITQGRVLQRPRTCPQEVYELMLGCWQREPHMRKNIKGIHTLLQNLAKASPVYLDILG

Brain-derived neurotrophic factor (ligand)
TrkB phosphorylation (Western blot of phosphorylated and total TrkB) in NIH-3T3-TrkB cells after 20 min with BDNF (500 ng/mL), fold change against the untreated control: 1.87 fold change
